Reference: PMC3995211

Experiments:
[1] = substrate: NC(=O)C1=CN([C@@H]2O[C@H](COP(=O)(O)OP(=O)(O)OC[C@H]3O[C@@H](n4cnc5c(N)ncnc54)[C@H](O)[C@@H]3O)[C@@H](O)[C@H]2O)C=CC1; assay: cells, lysate or membranes; assay type: biochemical, Fructilactobacillus sanfranciscensis; conditions: 50 mM potassium phosphate pH 7.0, 25 °C, air-saturated O2 (250 µM), cell free extract
[2] = substrate: NC(=O)C1=CN([C@@H]2O[C@H](COP(=O)(O)OP(=O)(O)OC[C@H]3O[C@@H](n4cnc5c(N)ncnc54)[C@H](OP(=O)(O)O)[C@@H]3O)[C@@H](O)[C@H]2O)C=CC1; assay: cells, lysate or membranes; assay type: biochemical, Fructilactobacillus sanfranciscensis; conditions: 50 mM potassium phosphate pH 7.0, 25 °C, air-saturated O2 (250 µM), cell free extract

B1: LsNOX (Lactobacillus sanfranciscensis NOX) (Fructilactobacillus sanfranciscensis) (protein)
chain: MKVIVVGCTHAGTFAVKQTIADHPDADVTAYEMNDNISFLSCGIALYLGKEIKNNDPRGLFYSSPEELSNLGANVQMRHQVTNVDPETKTIKVKDLITNEEKTEAYDKLIMTTGSKPTVPPIPGIDSSRVYLCKNYNDAKKLFEEAPKAKTITIIGSGYIGAELAEAYSNQNYNVNLIDGHERVLYKYFDKEFTDILAKDYEAHGVNLVLGSKVAAFEEVDDEIITKTLDGKEIKSDIAILCIGFRPNTELLKGKVAMLDNGAIITDEYMHSSNRDIFAAGDSAAVHYNPTNSNAYIPLATNAVRQGRLVGLNLTEDKVKDMGTQSSSGLKLYGRTYVSTGINTALAKANNLKVSEVIIADNYRPEFMLSTDEVLMSLVYDPKTRVILGGALSSMHDVSQSANVLSVCIQNKNTIDDLAMVDMLFQPQFDRPFNYLNILGQAAQAQADKAHK
notes: synthetic gene, plasmid pMSsN2, E. coli BL21 (DE3), untagged, cell free extract, about 50 kDa
In the case of B1, the Km [1] is reported as 9 ± 1 µM, the Vmax [1] is reported as 2.2 µmol/min/mg and the Km [2] is reported as 5 ± 1 µM. For the same protein, the Vmax [2] was 1.1 µmol/min/mg.
